Results as given in publication PMC5044835, “Crystal Structure of the Human Astrovirus Capsid Protein” (Journal of Virology, 2016).

Biological target: the molecule itself
Assay: not stated; data not shown; oligomeric state of recombinant VP70 expressed in insect cells or E. coli

Row | Protein | stoichiometry N
1 | astrovirus VP70 expressed in insect cells (natural protein, construct, tags and purification are not described; source: insect cells) MASKSDKQVTVEVNNNGRSRSKSRARSQSRGRGRSVKITVNSHNKGRRQNGRNKYQSNQRVRKIVNKQLRKQGVTGPKPAICQTATATLGTIGSNTTGATEIEACILLNPVLVKDATGSTQFGPVQALGAQYSMWKLKYLNVRLTSMVGASAVNGTVVRISLNPTSTPSSTSWSGLGARKHLDVTVGKNAVFKLKPSDLGGPRDGWWLTNTNDNASDTLGPSIEIHTLGQTMSSYQNTQFTGGLFLVELSSAWCFTGYAANPNLVNLVKSTDKSVNVTFEGSAGTPLIMNVPEHSHFARTAVEHSSLSTSLSRAGGESSSDTVWQVLNTAVSAAELVTPPPFNWLVKGGWWFVKLIAGRARTGARRFYVYLSYQDALSNKPALCTGGVPASARQSNPVRTTLQFTQMNQPSLGHGATPMTFGRSIPEPGEQFRVLLTVGPPMAPNTANSQNWVNKTIVPPENQYTVKIGIDLEHYTTMQGFTPVESVSWYTADFQPSDEPSPIPGLYARVNNTKKADVYGVQQFKSSHTNNRHQITSVFLVRVTTSFQVINYTSYFIRGAESGSNVSNLKIRDQTYHTPLQFTQGKWYLLTSTVMHDGPTSSGWVWMNQELTNNIAYRVDPGMMYLITPPPAASQLYFELHTVLPQARSEEPETYVD | 2
2 | astrovirus VP70 expressed in E. coli (natural protein, construct, tags and purification are not described; source: E. coli) MASKSDKQVTVEVNNNGRSRSKSRARSQSRGRGRSVKITVNSHNKGRRQNGRNKYQSNQRVRKIVNKQLRKQGVTGPKPAICQTATATLGTIGSNTTGATEIEACILLNPVLVKDATGSTQFGPVQALGAQYSMWKLKYLNVRLTSMVGASAVNGTVVRISLNPTSTPSSTSWSGLGARKHLDVTVGKNAVFKLKPSDLGGPRDGWWLTNTNDNASDTLGPSIEIHTLGQTMSSYQNTQFTGGLFLVELSSAWCFTGYAANPNLVNLVKSTDKSVNVTFEGSAGTPLIMNVPEHSHFARTAVEHSSLSTSLSRAGGESSSDTVWQVLNTAVSAAELVTPPPFNWLVKGGWWFVKLIAGRARTGARRFYVYLSYQDALSNKPALCTGGVPASARQSNPVRTTLQFTQMNQPSLGHGATPMTFGRSIPEPGEQFRVLLTVGPPMAPNTANSQNWVNKTIVPPENQYTVKIGIDLEHYTTMQGFTPVESVSWYTADFQPSDEPSPIPGLYARVNNTKKADVYGVQQFKSSHTNNRHQITSVFLVRVTTSFQVINYTSYFIRGAESGSNVSNLKIRDQTYHTPLQFTQGKWYLLTSTVMHDGPTSSGWVWMNQELTNNIAYRVDPGMMYLITPPPAASQLYFELHTVLPQARSEEPETYVD | 2
